Experimental data: PMC5166498 (The Journal of Cell Biology, 2016)

Biological target: T1, 6×His::UNC-84(912–1,111) (C. elegans, UniProt Q20745 912-1111)
T1 sequence (looked up): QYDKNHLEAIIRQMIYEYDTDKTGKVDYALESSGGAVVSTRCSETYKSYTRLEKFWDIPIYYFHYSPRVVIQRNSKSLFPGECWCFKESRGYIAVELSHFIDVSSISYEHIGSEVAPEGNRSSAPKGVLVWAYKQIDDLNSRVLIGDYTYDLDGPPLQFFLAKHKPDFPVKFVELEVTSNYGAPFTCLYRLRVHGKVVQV
Test: SEC

B1: MBP::ZYG-12(749–777) (domain or fragment, C. elegans, UniProt Q23529 749-777, looked up)
chain: ASILVLGFLVFIAWMFININSALNAPPNA
  binding result: binds
